{
  "source": "patent US12472269B2",
  "about": "“Liver-specific inducible promoters and methods of use thereof” (ASKBIO INC., priority 2019, dated 2025)",
  "molecules": {"B1": {"name": "PB1-MinTK: promoter: single mouse PBREM element and MinTK minimal promoter, SEQ ID NO: 7 (nucleic acid)", "DNA": "TCTGTACTTTCCTGACCTTGGCACAGTGCCACCATCAACTTGCCTGACACCGATCCGGCCCCGCCCAGCGTCTTGTCATTGGCGAATTCGAACACGCAGATGCAGTCGGGGCGGCGCGGTCCGAGGTCCACTTCGCATATTAAGGTGACGCGTGTGGCCTCGAACACCGAGCGACCCTGCAGCGACCCGCTTAACAGCGTCAACAGCGTGCCGCAGATCTCGAGGAGCTTGGCGAGATTTTCAGGAGCTAAGGAAGCTAAAC", "modifications": "PB1-MinTK"}},
  "type_in_all_cases": "cell-based, human",
  "key": {"[1]": {"tested_on": "AXOL ARE-hepatocytes", "assay": "Luciferase expression from PBREM promoters in AXOL ARE-hepatocytes, induction by CITCO", "details": "1 μM CITCO"}, "[2]": {"tested_on": "Huh7 cells", "assay": "Luciferase expression from PB1-MinTK construct in Huh7 cells transfected with CAR plasmid, induction by TCPOBOP", "excerpt": "(§1) • Huh7 cells which are a human liver cell line • DPBS: without CaCl2, without MgCl2 (Gibco, 14190-094) • DMEM (Sigma, D6546) • FBS (Sigma, F9665) • Pen-Strep (Sigma, P4333) • Promega Fugene-HD (E2311) • TCPOBOP (Sigma, T2320) • CITCO (Cayman Chemicals Company, 16027) • pcDNA6 plasmid which contains the β-galactosidase gene used as internal control for transfection efficiency (Thermofisher, V22020) • mouse CAR expression plasmid from Jouan et al, 2016 (BioCat GmbH, EX-Z4288-M51-10-GC). This was used as Huh7 is CAR deficient. • β-galactosidase substrate solution (Thermofisher, 75707/75710) • Pierce BCA kit (23225) • LARII (Dual Luciferase Reporter 1000 assay system, Promega, E1980) • EPO ELISA kit (Abcam, ab119522) Method: Day 1 • Cells were seeded onto a 48 well plate at a density of 25,000 cells/300 μl Day 2 • On the day of transfection, DNA to be transfected (CAR plasmid/PB1-MinTK operably linked with luciferase or EPO/pcDNA6 plasmid for internal control) was diluted to a 100 ng/μl stock solution. Per 48 Well Transfection: • 45 ng of DNA (15 ng of each plasmid, pcDNA6, CAR and test plasmid) was mixed with 4.1 μl of Optimem medium. • 0.5 μl of Fusion HD was mixed with 4 μl of Optimem medium. • These 2 solutions were mixed and incubated at room temperature for 15 minutes. • The final solution was then added to the well drop wise. • 3 hrs after transfection, the inducer TCPOBOP was added to the appropriate wells at the indicated concentration. Day 3 • 24 hrs after induction the media was removed from the cells. • The cells were washed once in 300 μl of DPBS • Cells were lysed using 100 μl of passive lysis buffer and incubation with rocking for 15 minutes • The cell debris was pelleted by centrifugation of the plate at max speed in a benchtop centrifuge for 1 min • For luciferase, 10 μl sample was transferred into white 96-well plate and luminescence measured by injection of 50 μl of LARII substrate. • β-galactosidase activity was measured as per manufacturer's instructions (Mammalian β-Galactosidase Assay Kit, 75707/75710, Thermo Scientific) using 25 μl of lysate. 25 μl of lysate was transferred into a microplate well and mixed with 25 μl of β-galactosidase Assay Reagent, equilibrated to room temperature. The mixture was incubated at 37° C. for 30 min and absorbance measured at 405 nm. • Protein concentration was measured as per manufacturer's instructions (Pierce™ BCA Protein Assay Kit, 23225/23227, Thermo Scientific) using 25 μl of lysate. 25 μl of lysate was transferred into a microplate well and mixed with 200 μl of working solution. The mixture was incubated at 37° C. for 30 min, cooled to room temperature and then absorbance measured around 562 nm. The protein concentration was calculated with respect to protein standard curve prepared from assaying standards with known protein concentration.\nLuciferase readouts were normalised to both β-galactosidase and protein concentration in the lysate to produce normalised relative luminometer units (RLUs).\nTo compare across experiments the strength of the promoters was compared to CMV-IE promoter which was driving the same gene as the PBREM-containing constructs, which is included in every experiment.\nThe PB1-MinTK construct was cloned into the vector pGL4.10 using the KpnI and NcoI restriction sites. This places the promoters directly upstream of the firefly luciferase reporter gene. The PB1-MinTK construct contains the 51 bp enhancer and the MinTK minimal promoter from Herpes Thymidine kinase gene."}, "[3]": {"tested_on": "Huh7 cells", "assay": "EPO expression (ELISA of medium) from PB1-MinTK in Huh7 cells with CAR-containing plasmid, induction by CITCO", "excerpt": "as §1\nTransfections with PB1-MinTk-EPO were performed as described above with the exception that EPO is secreted into the medium. Therefore, medium was collected, and EPO concentration measured as per manufacturer's instructions (ab119522 Erythropoietin (EPO) Human ELISA Kit, Abcam) using an ELISA assay. 50 μl of medium was transferred to a pre-washed microplate wells and mixed with 50 μl of 1× Biotin Conjugated Antibody. The mixture was incubated at room temperature for 1 hour. The wells were washed, 100 μl of Streptavadin-HRP was added and the plate was incubated at room temperature for 15 minutes. The wells were washed and then 100 μl of TMB Substrate Solution. The mixture was incubated at room temperature for 10 minutes. The enzyme reaction was stopped by addition of 100 μl of Stop Solution and absorbance was read at 450 nm. The EPO concentration was calculated with respect to EPO standard curve prepared from assaying standards with known EPO concentration.\nThe PB1-MinkTK promoter was then used to drive expression of the protein EPO, which is of therapeutic interest. […]"}},
  "data": [
    {"molecule": "B1", "values": [
      {"measurement": "expression level compared to CMV-IE", "setting": "[1]", "value": 20, "unit": "%"},
      {"measurement": "induction of luciferase expression", "setting": "[1]; readout 24 hrs after induction", "value": "around 7 fold"},
      {"measurement": "induction of the promoter (luciferase)", "setting": "[2]; 50 nM or 150 nM TCPOBOP, 24 hrs after induction", "value": "up to 6 fold"},
      {"measurement": "response of the promoter (luciferase)", "setting": "[2]; 250 nM TCPOBOP", "value": "did not illicit a response"},
      {"measurement": "luciferase expression as ratio of CMV-IE promoter", "setting": "[2]; TCPOBOP induced, one PBREM element with MinTK", "value": 40, "unit": "%"},
      {"measurement": "luciferase activity from the promoter (leaky expression)", "setting": "[2]; cells treated with vehicle (DMSO)", "value": "very little measurable luciferase activity"},
      {"measurement": "luciferase activity", "setting": "[2]; no CAR transfected, 150 nM TCPOBOP", "value": "no measurable activity"},
      {"measurement": "luciferase expression", "setting": "[2]; presence of CAR and 150 nM TCPOBOP", "value": "high"},
      {"measurement": "overall EPO expression level relative to CMV-IE", "setting": "[3]; CITCO induced (data not shown)", "value": "around 22%"},
      {"measurement": "EPO production", "setting": "[3]; addition of up to 2 μM CITCO", "value": "marked increase in the production of EPO"},
      {"measurement": "EPO expression", "setting": "[3]; highest concentration of CITCO (3 μM)", "value": "returns towards baseline activity"},
      {"measurement": "EPO expression", "setting": "[3]; no addition of the drug (DMSO)", "value": "very little expression of EPO"}
    ]}
  ]
}
